Experimental data taken from patent publication US6716597 (MIT, dated 2004).

B1: FPPPP-mito (EGFP fused to ActA amino acids 231-610, four EVH1-binding FPPPP repeats and the mitochon (other)
chain: VNASDFPPPPTDEELRLALPETPMLLGFNAPATSEPSSFEFPPPPTDEELRLALPETPMLLGFNAPATSEPSSFEFPPPPTEDELEIIRETASSLDSSFTRGDLASLRNAINRHSQNFSDFPPIPTEEELNGRGGRPTSEEFSSLNSGDFTDDENSETTEEEIDRLADLRDRGTGKHSRNAGFLPLNPFASSPVPSLSPKVSKISAPALISDITKKTPFKNPSQPLNVFNKKTTTKTVTKKPTPVKTAPKLAELPATKPQETVLRENKTPFIEKQAETNKQSINMPSLPVIQKEATESDKEEMKPQTEEKMVEESESANNANGKNRSAGIEEGKLIAKSAEDEKAKEEPGNHTTLILAMLAIGVFSLGAFIKIIQLRKNN
notes: not shown: EGFP (enhanced green fluorescent protein, Clontech); the ActA portion is fused to its C-term
B2: VASP (endogenous, in Rat2 fibroblasts) (other)
chain: ETVICSSRATVMLYDDSNKRWLPAGTGPQAFSRVQIYHNPTANSFRVVGRKLQPDQQVVINCAIIRGVKYNQATPIFHQWRDARQVWGLNFGSKEDAAQFAIGMANALEALEGGGPPPAPAPPAWSTQNGPSPEELEQQKRQPEHLERRVSNAGGPPAPPAGGPPPPPGPPPPPGPPPPPGLPPSGVSGAGHGTGVAPPPAPPLPTAQGPSSGGSGAPGLAAAIAGAKLRKVSKEEASGGPLAPKAENSRGTGGGLMEEMNAMLARRRKATQVGEKPPKDESASQEESEARIPAQSEPVRRPWEKNSTTLPRMKSSSSVTTSEAHPSVPSSSDDSDLERVKQELVEEVRKELQKMKEEIIEVFVQELRKRGSP
notes: whole, on cells; also called vasodilator-stimulated phosphoprotein

Assays:
[1] = molecular target: T1, vinculin (endogenous, in Rat2 fibroblasts) (rat (Rat2 fibroblasts), UniProt P85972 1-1066); assay: immunofluorescence in FPPPP-mito Rat2 cells
T1 construct: whole, on cells
T1 sequence: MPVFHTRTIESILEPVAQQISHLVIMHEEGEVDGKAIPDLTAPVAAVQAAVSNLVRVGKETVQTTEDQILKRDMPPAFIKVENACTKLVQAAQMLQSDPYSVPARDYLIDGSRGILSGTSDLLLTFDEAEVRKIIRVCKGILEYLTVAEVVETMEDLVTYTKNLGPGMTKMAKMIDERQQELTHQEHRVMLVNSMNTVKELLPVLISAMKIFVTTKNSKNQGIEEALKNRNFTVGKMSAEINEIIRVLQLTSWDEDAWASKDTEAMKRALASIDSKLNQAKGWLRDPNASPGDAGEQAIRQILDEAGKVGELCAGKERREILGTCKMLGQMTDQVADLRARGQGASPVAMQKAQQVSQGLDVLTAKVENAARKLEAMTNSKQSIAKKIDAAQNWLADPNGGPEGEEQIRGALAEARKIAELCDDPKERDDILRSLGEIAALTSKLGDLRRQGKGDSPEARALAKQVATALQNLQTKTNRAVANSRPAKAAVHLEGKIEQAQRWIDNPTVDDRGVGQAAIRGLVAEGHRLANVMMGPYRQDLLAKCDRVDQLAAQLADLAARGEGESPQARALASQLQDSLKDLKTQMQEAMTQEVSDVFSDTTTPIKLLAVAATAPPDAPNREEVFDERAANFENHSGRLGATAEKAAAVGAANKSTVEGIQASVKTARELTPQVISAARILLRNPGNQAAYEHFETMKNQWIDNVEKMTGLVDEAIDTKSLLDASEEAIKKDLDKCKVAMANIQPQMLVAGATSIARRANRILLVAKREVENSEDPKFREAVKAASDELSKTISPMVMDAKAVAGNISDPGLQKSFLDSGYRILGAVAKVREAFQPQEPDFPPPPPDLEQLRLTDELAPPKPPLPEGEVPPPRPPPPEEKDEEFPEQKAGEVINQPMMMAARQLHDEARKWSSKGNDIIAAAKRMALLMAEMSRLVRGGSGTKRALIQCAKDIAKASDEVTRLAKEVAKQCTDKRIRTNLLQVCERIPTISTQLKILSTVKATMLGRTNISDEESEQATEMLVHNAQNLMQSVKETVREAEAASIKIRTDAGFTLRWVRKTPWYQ

[2] = molecular target: T2, p34 component of the Arp2/3 complex (endogenous, in Rat2 fibroblasts) (rat (Rat2 fibroblasts), UniProt P85970 1-300); assay: immunofluorescence in FPPPP-mito Rat2 cells
T2 construct: whole, on cells

[3] = molecular target: B1; assay: immunofluorescence co-localisation in Rat2 cells expressing the construct
[4] = molecular target: B2; assay: immunofluorescence in Rat2 cells expressing the construct

## B1
[1]
  binding result: no binding
[2]
  binding result: no binding

## B2
[3]
  binding result: binds

B3: FPPPP-cyto (EGFP fused to ActA amino acids 231-360, without the mitochondrial targeting sequence) (other)
chain: VNASDFPPPPTDEELRLALPETPMLLGFNAPATSEPSSFEFPPPPTDEELRLALPETPMLLGFNAPATSEPSSFEFPPPPTEDELEIIRETASSLDSSFTRGDLASLRNAINRHSQNFSDFPPIPTEEEL
notes: not shown: EGFP (enhanced green fluorescent protein, Clontech)
[4]
  binding result: binds
